In IntAct's records for PubMed 19666485:

B1: Chromodomain-helicase-DNA-binding protein 1-like (Homo sapiens), Q86WJ1-1 (parent)
chain: MERAGATSRGGQAPGFLLRLHTEGRAEAARVQEQDLRQWGLTGIHLRSYQLEGVNWLAQRFHCQNGCILGDEMGLGKTCQTIALFIYLAGRLNDEGPFLILCPLSVLSNWKEEMQRFAPGLSCVTYAGDKEERACLQQDLKQESRFHVLLTTYEICLKDASFLKSFPWSVLVVDEAHRLKNQSSLLHKTLSEFSVVFSLLLTGTPIQNSLQELYSLLSFVEPDLFSKEEVGDFIQRYQDIEKESESASELHKLLQPFLLRRVKAEVATELPKKTEVVIYHGMSALQKKYYKAILMKDLDAFENETAKKVKLQNILSQLRKCVDHPYLFDGVEPEPFEVGDHLTEASGKLHLLDKLLAFLYSGGHRVLLFSQMTQMLDILQDYMDYRGYSYERVDGSVRGEERHLAIKNFGQQPIFVFLLSTRAGGVGMNLTAADTVIFVDSDFNPQNDLQAAARAHRIGQNKSVKVIRLIGRDTVEEIVYRKAASKLQLTNMIIEGGHFTLGAQKPAADADLQLSEILKFGLDKLLASEGSTMDEIDLESILGETKDGQWVSDALPAAEGGSRDQEEGKNHMYLFEGKDYSKEPSKEDRKSFEQLVNLQKTLLEKASQEGRSLRNKGSVLIPGLVEGSTKRKRVLSPEELEDRQKKRQEAAAKRRRLIEEKKRQKEEAEHKKKMAWWESNNYQSFCLPSEESEPEDLENGEESSAELDYQDPDATSLKYVSGDVTHPQAGAEDALIVHCVDDSGHWGRGGLFTALEKRSAEPRKIYELAGKMKDLSLGGVLLFPVDDKESRNKGQDLLALIVAQHRDRSNVLSGIKMAALEEGLKKIFLAAKKKKASVHLPRIGHATKGFNWYGTERLIRKHLAARGIPTYIYYFPRSKSAVLHSQSSSSSSRQLVP

Variants of: B1
Conditions: with parp1_human PARP1, P09874
Chain of parp1_human PARP1, P09874 (P09874 whole entry): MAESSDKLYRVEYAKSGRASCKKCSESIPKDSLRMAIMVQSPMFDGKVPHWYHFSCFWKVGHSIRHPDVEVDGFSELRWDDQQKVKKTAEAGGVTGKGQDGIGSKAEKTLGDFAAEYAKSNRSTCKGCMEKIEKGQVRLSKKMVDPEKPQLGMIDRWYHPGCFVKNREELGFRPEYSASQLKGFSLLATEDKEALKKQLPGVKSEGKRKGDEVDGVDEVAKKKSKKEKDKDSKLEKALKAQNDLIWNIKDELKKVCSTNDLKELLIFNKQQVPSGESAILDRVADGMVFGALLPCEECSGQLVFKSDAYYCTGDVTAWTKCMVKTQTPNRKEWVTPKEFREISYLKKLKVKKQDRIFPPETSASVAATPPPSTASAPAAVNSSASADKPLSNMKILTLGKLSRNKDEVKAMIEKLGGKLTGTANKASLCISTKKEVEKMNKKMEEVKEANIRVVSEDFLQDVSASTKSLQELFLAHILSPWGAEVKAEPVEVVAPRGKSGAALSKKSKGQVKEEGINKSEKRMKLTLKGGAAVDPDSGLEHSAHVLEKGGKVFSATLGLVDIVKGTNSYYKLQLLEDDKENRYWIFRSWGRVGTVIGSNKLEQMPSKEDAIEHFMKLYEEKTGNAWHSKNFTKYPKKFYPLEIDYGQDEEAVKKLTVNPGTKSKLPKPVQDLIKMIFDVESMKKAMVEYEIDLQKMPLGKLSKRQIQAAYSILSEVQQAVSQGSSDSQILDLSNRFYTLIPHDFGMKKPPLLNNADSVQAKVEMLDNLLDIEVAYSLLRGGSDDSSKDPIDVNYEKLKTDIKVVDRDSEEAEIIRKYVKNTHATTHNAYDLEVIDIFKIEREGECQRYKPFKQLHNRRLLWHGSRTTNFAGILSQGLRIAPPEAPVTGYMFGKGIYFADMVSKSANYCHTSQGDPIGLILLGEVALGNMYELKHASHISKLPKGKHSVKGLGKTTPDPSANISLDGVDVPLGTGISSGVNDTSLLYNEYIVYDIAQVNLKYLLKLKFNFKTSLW

effect of a mutation on the interaction	Variant
disrupting interaction	D723A
disrupting interaction	E175Q
